Source: IntAct's records for PubMed 17289582

Molecular target: fap24_human FAAP24 (UniProt Q9BTP7)
Sequence of UniProt Q9BTP7 (Q9BTP7 whole entry): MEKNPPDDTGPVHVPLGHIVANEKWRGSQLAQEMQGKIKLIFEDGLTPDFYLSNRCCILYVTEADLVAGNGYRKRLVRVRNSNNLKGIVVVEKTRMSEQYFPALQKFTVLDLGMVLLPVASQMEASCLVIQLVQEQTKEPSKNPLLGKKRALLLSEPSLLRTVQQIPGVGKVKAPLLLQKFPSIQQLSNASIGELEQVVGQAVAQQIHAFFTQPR

Fanconi anemia group M protein (Homo sapiens), Q8IYD8 K117R
effect of a mutation on the interaction: with no effect
